Measured values as given in patent publication US20130288274A1 (BIO RAD LABORATORIES, published 2013).

Target: the molecule itself
Experiment: SDS-PAGE and size-exclusion chromatography; self-association
Description: The affinity purified protein was analyzed by SDS-PAGE gel electrophoresis (FIG. 1). The D2-hexamers that were further purified on the size-exclusion column as described above were analyzed by SDS-PAGE (FIG. 1). […] This aggregation of the hexamers is so strong that it is not dissociated under the denaturing conditions used in SDS-PAGE. Additionally, both hexamer proteins migrated at the position of about 45 kd in a size-exclusion chromatogram. Without being bound to a particular theory, the surprising tendency of the hexamers to aggregate to form a trimer of hexamers may contribute to the improved immunoreactivity of the D2 hexamer.

Protein | binding result
classic D2 hexamer with His tag (His-tagged recombinant deamidated gliadin protein) (other, also called classic DGP; DGP hexamer) MRGSHHHHHHGSPEFQPEQPQQSFPEQERPFGGGGSQPEQPQQSFPEQERPFGGGGSQPEQPQQSFPEQERPFGGGGSQPEQPQQSFPEQERPFGGGGSQPEQPQQSFPEQERPFGGGGSQPEQPQQSFPEQERPF | binds
lysine-containing D2 hexamer with His tag (His-tagged Recombinant Deamidated Gliadin Peptide with a lysine substituted for a glutamic acid residue at position … (other, also called lysine-containing DGP; lysine-containing DGP hexamer) MRGSHHHHHHGSPKFQPEQPQQSFPEQERPFGGGGSQPEQPQQSFPEQERPFGGGGSQPEQPQQSFPEQERPFGGGGSQPEQPQQSFPEQERPFGGGGSQPEQPQQSFPEQERPFGGGGSQPEQPQQSFPEQERPF | binds
